According to the supplement of paper PMC9732359:
± gives the uncertainty stated by the source.

Experiment: protein stability index of a GFP-peptide fusion (yeast GPS) (PSI 1-4); higher = more stable; sorted into four equal gates, so the index is relative within each strain
Summary of the method: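 Yeast carrying a pooled library were grown to mid-log phase in leucine-free medium. Each library plasmid expresses Cherry and has a tiled 17-residue yeast protein peptide fused downstream of GFP. Cells were sorted into four equal gates by GFP/Cherry ratio, and plasmids from each gate were PCR-amplified, Illumina-sequenced and assigned to strains by barcode. Summing, across gates, the read frequency times the gate number gave each peptide's protein stability index.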

SFTFASSKTSQPKPLFS [YOR098C/NUP1]
protein stability index (doa10∆): 2.37 ± 0.042 | protein stability index (pdr5∆): 2.44 ± 0.035 | protein stability index (san1∆): 2.27 ± 0.046 | protein stability index (ubr1∆): 2.69 ± 0.029

GDVVLAAAYSHELPRYG [RPL5]
protein stability index (doa10∆): 2.83 ± 0.073 | protein stability index (pdr5∆): 2.95 ± 0.068 | protein stability index (san1∆): 2.99 ± 0.061 | protein stability index (ubr1∆): 2.97 ± 0.074

NVKEEETVAKSKNAERK [RPS8A]
protein stability index (doa10∆): 3.07 ± 0.038 | protein stability index (pdr5∆): 3.09 ± 0.035 | protein stability index (san1∆): 3.215 ± 0.022 | protein stability index (ubr1∆): 3.001 ± 0.029

VHPGANYLLKRNEDARR [RPO31]
protein stability index (doa10∆): 3.21 ± 0.067 | protein stability index (pdr5∆): 3.14 ± 0.077 | protein stability index (san1∆): 2.93 ± 0.077 | protein stability index (ubr1∆): 3.35 ± 0.038

SGEEKGKKVSGFKDEVL [RPS1B]
protein stability index (doa10∆): 3.4 ± 0.11 | protein stability index (pdr5∆): 3.61 ± 0.14 | protein stability index (san1∆): 3.48 ± 0.11 | protein stability index (ubr1∆): 3.46 ± 0.083

QILSVAIPNGIHLQRFD [RPO21]
protein stability index (doa10∆): 2.41 ± 0.1 | protein stability index (pdr5∆): 2.33 ± 0.075 | protein stability index (san1∆): 1.94 ± 0.1 | protein stability index (ubr1∆): 2.77 ± 0.079

KEIMDKIITSRPLQKIM [SIN4]
protein stability index (doa10∆): 2.13 ± 0.12 | protein stability index (pdr5∆): 1.23 ± 0.068 | protein stability index (san1∆): 1.45 ± 0.18 | protein stability index (ubr1∆): 1.06 ± 0.065

NSAQNNSTTSGGLFGNK [YGR119C/NUP57]
protein stability index (doa10∆): 3.25 ± 0.13 | protein stability index (pdr5∆): 2.91 ± 0.13 | protein stability index (san1∆): 3.2 ± 0.073 | protein stability index (ubr1∆): 3.24 ± 0.17

YHSKRDASTPLRSTENG [RPB2]
protein stability index (doa10∆): 3.12 ± 0.1 | protein stability index (pdr5∆): 3.32 ± 0.071 | protein stability index (san1∆): 3.12 ± 0.055 | protein stability index (ubr1∆): 3.33 ± 0.05

HVLRGVESPDKNVRFRV [YCG1]
protein stability index (pdr5∆): 3.68 ± 0.2 | protein stability index (san1∆): 3.16 ± 0.15

QNYLKTYNEDIPVEILV [PRE9]
protein stability index (doa10∆): 2.79 ± 0.066 | protein stability index (pdr5∆): 2.05 ± 0.084 | protein stability index (san1∆): 2.76 ± 0.091 | protein stability index (ubr1∆): 2.38 ± 0.071

DVTALLEQGFKVVSAKE [YCS4]
protein stability index (doa10∆): 2.48 ± 0.12 | protein stability index (pdr5∆): 1.68 ± 0.077 | protein stability index (san1∆): 2.9 ± 0.098 | protein stability index (ubr1∆): 3.37 ± 0.16

LFLEPSWSSSAAVIMRC [PCI8]
protein stability index (doa10∆): 1.19 ± 0.087 | protein stability index (pdr5∆): 2.07 ± 0.093 | protein stability index (san1∆): 1.58 ± 0.16 | protein stability index (ubr1∆): 2.39 ± 0.095

KEEGLQQFNLHEILSEP [MED1]
protein stability index (doa10∆): 2.97 ± 0.15 | protein stability index (pdr5∆): 3.21 ± 0.15 | protein stability index (san1∆): 3.12 ± 0.12 | protein stability index (ubr1∆): 2.62 ± 0.12

LEKKFQDRHVIFLAERR [RPS7A]
protein stability index (doa10∆): 2.53 ± 0.23 | protein stability index (pdr5∆): 2.9 ± 0.12 | protein stability index (san1∆): 2.86 ± 0.27 | protein stability index (ubr1∆): 2.71 ± 0.11

RQFLHELRRPGVDNLRR [RPO31]
protein stability index (doa10∆): 1.27 ± 0.078 | protein stability index (pdr5∆): 1.37 ± 0.097 | protein stability index (san1∆): 1.25 ± 0.23 | protein stability index (ubr1∆): 1.64 ± 0.093

EERKRWAMQGISYLQEV [PCI8]
protein stability index (doa10∆): 3.58 ± 0.19 | protein stability index (pdr5∆): 3.15 ± 0.13 | protein stability index (san1∆): 3.12 ± 0.15 | protein stability index (ubr1∆): 3.23 ± 0.11

ERVWNICLYSSFQKNSL [AAR2]
protein stability index (doa10∆): 1.8 ± 0.059 | protein stability index (pdr5∆): 2.01 ± 0.046 | protein stability index (san1∆): 2.18 ± 0.1 | protein stability index (ubr1∆): 2.02 ± 0.034

AEGQTNSISDFLGEQVN [RPN1]
protein stability index (doa10∆): 3.06 ± 0.079 | protein stability index (pdr5∆): 2.89 ± 0.067 | protein stability index (san1∆): 2.98 ± 0.077 | protein stability index (ubr1∆): 3.12 ± 0.059

ILKSPHLSKSPADRPQG [SIR4]
protein stability index (doa10∆): 2.43 ± 0.074 | protein stability index (pdr5∆): 2.51 ± 0.058 | protein stability index (san1∆): 2.33 ± 0.056 | protein stability index (ubr1∆): 2.37 ± 0.045

VRTDTTYPAGFMDVITL [RPS4A]
protein stability index (doa10∆): 2.37 ± 0.11 | protein stability index (pdr5∆): 2.57 ± 0.1 | protein stability index (san1∆): 2.92 ± 0.1 | protein stability index (ubr1∆): 2.78 ± 0.098

TPLTFALPRGARTATVS [RPL14A]
protein stability index (doa10∆): 1.55 ± 0.063 | protein stability index (pdr5∆): 1.5 ± 0.061 | protein stability index (san1∆): 1.4 ± 0.1 | protein stability index (ubr1∆): 1.57 ± 0.049

NVLNQIHQILLPTNPTL [CSE2]
protein stability index (doa10∆): 2.65 ± 0.036 | protein stability index (pdr5∆): 2.74 ± 0.037 | protein stability index (san1∆): 2.14 ± 0.05 | protein stability index (ubr1∆): 2.42 ± 0.035

SGAYSYPDFRHYGLAVD [DIS3]
protein stability index (doa10∆): 1.82 ± 0.047 | protein stability index (pdr5∆): 2.56 ± 0.056 | protein stability index (san1∆): 2.42 ± 0.089 | protein stability index (ubr1∆): 2.67 ± 0.043

ECATCHGNLASCHGHFG [RPO31]
protein stability index (doa10∆): 2.9 ± 0.072 | protein stability index (pdr5∆): 3.17 ± 0.12 | protein stability index (san1∆): 2.92 ± 0.067 | protein stability index (ubr1∆): 3.04 ± 0.056

SKLAEEKIRAAGGVVEL [RPL28]
protein stability index (doa10∆): 2.85 ± 0.04 | protein stability index (pdr5∆): 3.08 ± 0.034 | protein stability index (san1∆): 3.09 ± 0.037 | protein stability index (ubr1∆): 2.943 ± 0.025

SVLRDTLVAQNLKQANN [SMC4]
protein stability index (doa10∆): 2.68 ± 0.082 | protein stability index (pdr5∆): 2.53 ± 0.06 | protein stability index (san1∆): 2.48 ± 0.052 | protein stability index (ubr1∆): 2.33 ± 0.035

NSPNYFVAKLAAQIFGS [COR1]
protein stability index (doa10∆): 1.84 ± 0.044 | protein stability index (pdr5∆): 2.02 ± 0.061 | protein stability index (san1∆): 1.68 ± 0.08 | protein stability index (ubr1∆): 2.12 ± 0.049

VKDKEEDHIFFKYIYEL [YDL116W/NUP84]
protein stability index (doa10∆): 1.34 ± 0.07 | protein stability index (pdr5∆): 1.09 ± 0.093 | protein stability index (san1∆): 1.16 ± 0.16 | protein stability index (ubr1∆): 1.06 ± 0.076

AMNDACYEKVLESINEG [BRR2]
protein stability index (doa10∆): 3.15 ± 0.12 | protein stability index (pdr5∆): 2.82 ± 0.17 | protein stability index (san1∆): 2.91 ± 0.095 | protein stability index (ubr1∆): 3.37 ± 0.2

DPYELKGEVVLVNIRTQ [ITC1]
protein stability index (doa10∆): 1.57 ± 0.098 | protein stability index (pdr5∆): 2.66 ± 0.14 | protein stability index (san1∆): 2.45 ± 0.11 | protein stability index (ubr1∆): 2.3 ± 0.099

KICSSEMINEQKLPQYI [RGR1]
protein stability index (doa10∆): 3.02 ± 0.11 | protein stability index (pdr5∆): 2.9 ± 0.13 | protein stability index (san1∆): 3.01 ± 0.15 | protein stability index (ubr1∆): 2.98 ± 0.1

SYESLKKRKIHNGREGS [MCD1]
protein stability index (doa10∆): 1.7 ± 0.04 | protein stability index (pdr5∆): 1.91 ± 0.041 | protein stability index (san1∆): 1.69 ± 0.062 | protein stability index (ubr1∆): 2 ± 0.032

FQNSYKPALKVSKEGLY [YMR129W/POM152]
protein stability index (doa10∆): 2.42 ± 0.22 | protein stability index (pdr5∆): 3.12 ± 0.11 | protein stability index (san1∆): 3.02 ± 0.082 | protein stability index (ubr1∆): 3.07 ± 0.1

QVIFEIFEISLQRKDYT [YML103C/NUP188]
protein stability index (doa10∆): 2 ± 0.053 | protein stability index (pdr5∆): 2.19 ± 0.056 | protein stability index (san1∆): 2.51 ± 0.069 | protein stability index (ubr1∆): 2.84 ± 0.061

ERSAGNIVQVFKKAAPS [RPB2]
protein stability index (doa10∆): 2.6 ± 0.12 | protein stability index (pdr5∆): 2.53 ± 0.14 | protein stability index (san1∆): 2.52 ± 0.11 | protein stability index (ubr1∆): 2.91 ± 0.27

KAGRAFHKYRLKRNSWP [RPL2A]
protein stability index (doa10∆): 2.87 ± 0.082 | protein stability index (pdr5∆): 2.88 ± 0.063 | protein stability index (san1∆): 2.13 ± 0.058 | protein stability index (ubr1∆): 2.05 ± 0.064

TEGCIGLSQTEAFGNIK [MCD1]
protein stability index (doa10∆): 2.61 ± 0.058 | protein stability index (pdr5∆): 2.61 ± 0.076 | protein stability index (san1∆): 2.81 ± 0.093 | protein stability index (ubr1∆): 2.56 ± 0.072

KMMSFQANPTEESISKF [RPB5]
protein stability index (doa10∆): 3.02 ± 0.077 | protein stability index (pdr5∆): 3.17 ± 0.076 | protein stability index (san1∆): 2.4 ± 0.2 | protein stability index (ubr1∆): 3.15 ± 0.12

ITNDWEQPCVDIISGKI [YJR042W/NUP85]
protein stability index (doa10∆): 3.36 ± 0.078 | protein stability index (pdr5∆): 3.44 ± 0.066 | protein stability index (san1∆): 3.18 ± 0.053 | protein stability index (ubr1∆): 3.02 ± 0.058

SELLGGTFKSTLDREYI [QCR2]
protein stability index (doa10∆): 3.15 ± 0.093 | protein stability index (pdr5∆): 3.17 ± 0.11 | protein stability index (san1∆): 2.87 ± 0.089 | protein stability index (ubr1∆): 3.1 ± 0.05

FKDETISKKIIGMSLLM [SIR3]
protein stability index (doa10∆): 3.04 ± 0.062 | protein stability index (pdr5∆): 2.07 ± 0.06 | protein stability index (san1∆): 2.78 ± 0.068 | protein stability index (ubr1∆): 3.51 ± 0.058

ASGKEVEKVATAVLSTT [RPN2]
protein stability index (doa10∆): 2.76 ± 0.14 | protein stability index (pdr5∆): 3.47 ± 0.17

VFDTAITSWYENHNKGK [QCR9]
protein stability index (doa10∆): 2.49 ± 0.16 | protein stability index (pdr5∆): 2.96 ± 0.12 | protein stability index (san1∆): 2.65 ± 0.1 | protein stability index (ubr1∆): 2.15 ± 0.073

DPPFRIEEQGWGGFPLD [TAF14]
protein stability index (doa10∆): 3.32 ± 0.055 | protein stability index (pdr5∆): 3.33 ± 0.052 | protein stability index (san1∆): 3.44 ± 0.048 | protein stability index (ubr1∆): 3.34 ± 0.047

IEATDLGNIASSFYINH [BRR2]
protein stability index (doa10∆): 3 ± 0.085 | protein stability index (pdr5∆): 3.04 ± 0.1 | protein stability index (san1∆): 3.12 ± 0.078 | protein stability index (ubr1∆): 3.3 ± 0.072

ILQYFEKWISSKNSKLS [SIR3]
protein stability index (doa10∆): 2.8 ± 0.15 | protein stability index (pdr5∆): 1.48 ± 0.087 | protein stability index (san1∆): 2 ± 0.26 | protein stability index (ubr1∆): 1.27 ± 0.083

YNSFPHSNLEKISNSKL [SIR4]
protein stability index (doa10∆): 2.77 ± 0.066 | protein stability index (pdr5∆): 2.65 ± 0.076 | protein stability index (san1∆): 2.61 ± 0.043 | protein stability index (ubr1∆): 2.76 ± 0.048

KAAGLTAAYARTIGIAV [RPL13A]
protein stability index (doa10∆): 1.56 ± 0.077 | protein stability index (pdr5∆): 1.46 ± 0.059 | protein stability index (san1∆): 1.22 ± 0.11 | protein stability index (ubr1∆): 1.38 ± 0.089

PSELNQLKMVNERELNV [RPC82]
protein stability index (doa10∆): 3.14 ± 0.13 | protein stability index (pdr5∆): 2.94 ± 0.15

MSAQKAPKWYPSEDVAA [RPL6A]
protein stability index (doa10∆): 2.03 ± 0.12 | protein stability index (pdr5∆): 2.35 ± 0.13 | protein stability index (san1∆): 1.57 ± 0.27 | protein stability index (ubr1∆): 2.1 ± 0.071

KVEKVVKCKMSALQQIM [SNF2]
protein stability index (doa10∆): 2.86 ± 0.12 | protein stability index (pdr5∆): 3.05 ± 0.24 | protein stability index (san1∆): 2.95 ± 0.14 | protein stability index (ubr1∆): 3.13 ± 0.09

FMSNDGPTLEKYISAEL [SNU114]
protein stability index (doa10∆): 2.18 ± 0.069 | protein stability index (pdr5∆): 2.83 ± 0.078 | protein stability index (san1∆): 3.03 ± 0.054 | protein stability index (ubr1∆): 3.24 ± 0.082
